Laboratory results reported in patent US20120316071A1 (published 2012).
Each block holds one binder with its values, some of them ahead of it.

What was measured:
[1] = target: T1, rHuman Notch-1/Fc Chimera, CF (R&D Systems Cat#3647-TK) (human, UniProt P46531 19-526); test: Multispot ECL (MSD), antigen spotted on plate, Fab 250 nM; blank spot 590
T1 construct: Bought recombinant protein; Fc part of the bought chimera not given

[2] = target: T2, Recombinant Human DLL4 (R&D Systems Cat#1506-D4/CF) (human, UniProt Q9NR61 27-524); test: as above
T2 construct: Bought recombinant protein; also called rHuman DLL4; delta-like protein 4

[3] = target: T3, rHuman IGF-1 sR, CF (R&D Systems Cat#391-GR) (human, UniProt P08069 31-932); test: as above
T3 construct: Bought recombinant soluble receptor; also called insulin-like growth factor-1 soluble receptor

[4] = target: T4, rHuman Erythropoietin R/Fc Chimera, CF (R&D Systems Cat#963-ER) (human, UniProt P19235 25-250); test: as above
T4 construct: Bought recombinant protein; also called EPO R/Fc; Epo R; Fc part of the bought chimera not given
T4 sequence (looked up): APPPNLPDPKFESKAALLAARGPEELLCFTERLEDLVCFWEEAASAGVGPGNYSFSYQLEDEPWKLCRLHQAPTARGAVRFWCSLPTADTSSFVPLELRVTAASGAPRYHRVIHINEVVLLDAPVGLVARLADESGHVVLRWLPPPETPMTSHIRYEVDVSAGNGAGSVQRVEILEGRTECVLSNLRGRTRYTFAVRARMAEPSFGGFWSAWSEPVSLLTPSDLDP

[5] = target: T5, rHuman ErbB2/Fc Chimera, CF (R&D Systems Cat#1129-ER) (human, UniProt P04626 23-652); test: Multispot ECL (MSD) titration; antigen spotted on plate; Fab 1570 nM; blank spot 866
T5 construct: Bought Fc chimera; also called human epidermal growth factor 2 receptor; Fc part of the bought chimera not given

[6] = target: T6, Recombinant Human DLL4 (R&D Systems Cat#1506-D4/CF) (human, UniProt Q9NR61 27-524); test: as above
T6 construct: Bought recombinant protein; also called delta-like protein 4; rHuman DLL4

[7] = target: T7, rHuman Erythropoietin R/Fc Chimera, CF (R&D Systems Cat#963-ER) (human, UniProt P19235 25-250); test: as above
T7 construct: Bought Fc chimera; also called EPO R/Fc; EPO R; Fc part of the bought chimera not given
T7 sequence (looked up): T4 sequence (looked up)

[8] = target: T8, rHuman P-Cadherin/Fc Chimera, CF (R&D Systems Cat#861-PC) (human, UniProt P22223 108-654); test: as above
T8 construct: Bought Fc chimera; Fc part of the bought chimera not given

[9] = target: T9, rHuman CD44/Fc Chimera, CF (R&D Systems Cat#3660-CD) (human, UniProt P16070 21-220); test: as above
T9 construct: Bought Fc chimera; Fc part of the bought chimera not given

[10] = target: T10, rHuman HGF R/c-MET/Fc Chimera, CF (R&D Systems Cat#358-MT/CF) (human, UniProt P08581 25-932); test: as above
T10 construct: Bought Fc chimera; also called HGF R/Fc; hepatocyte growth factor receptor; Fc part of the bought chimera not given

[11] = target: T11, rHuman Notch-1/Fc Chimera, CF (R&D Systems Cat#3647-TK) (human, UniProt P46531 19-526); test: as above
T11 construct: Bought Fc chimera; Fc part of the bought chimera not given

[12] = target: T12, rHuman IGF-1 sR (IGF-1 sR), CF (R&D Systems Cat#391-GR) (human, UniProt P08069 31-932); test: as above
T12 construct: Bought soluble receptor; also called insulin-like growth factor-1 soluble receptor

[13] = target: T13, rHuman ErbB2/Fc Chimera, CF (R&D Systems Cat#1129-ER) (human, UniProt P04626 23-652); test: ECL multispot (MSD) assay, spotted antigen; Fab 2.00 (head prints uM)
T13 construct: Bought recombinant protein; Fc part of the bought chimera not given

[14] = target: T14, rHuman IGF-1 sR, CF (R&D Systems Cat#391-GR) (human, UniProt P08069 31-932); test: as above
T14 construct: Bought soluble receptor; The column head prints only 'IGF-1'; also called insulin-like growth factor-1 soluble receptor

[15] = target: T15, rHuman Notch-1/Fc Chimera, CF (R&D Systems Cat#3647-TK) (human, UniProt P46531 19-526); test: as above
T15 construct: Bought recombinant protein; Fc part of the bought chimera not given

[16] = target: T16, rHuman CD44/Fc Chimera, CF (R&D Systems Cat#3660-CD) (human, UniProt P16070 21-220); test: as above
T16 construct: Bought recombinant protein; Fc part of the bought chimera not given

[17] = target: T17, Recombinant Human DLL4 (R&D Systems Cat#1506-D4/CF) (human, UniProt Q9NR61 27-524); test: MSD multispot ECL, antigen spotted on plate; Fab 0.00797 uM; blank spot 364
T17 construct: Bought recombinant protein; also called delta-like protein 4; rHuman DLL4

[18] = target: T18, rHuman HGF R/c-MET/Fc Chimera, CF (R&D Systems Cat#358-MT/CF) (human, UniProt P08581 25-932); test: as above
T18 construct: Bought recombinant protein; also called HGF R/Fc; hepatocyte growth factor receptor; Fc part of the bought chimera not given

[19] = target: T19, rHuman Erythropoietin R/Fc Chimera, CF (R&D Systems Cat#963-ER) (human, UniProt P19235 25-250); test: as above
T19 construct: Bought recombinant protein; also called EPO R/Fc; Epo R; Fc part of the bought chimera not given
T19 sequence (looked up): T4 sequence (looked up)

B1: Fab VH1-46_IGHD6-13*01_IGHJ4*01 & B3_IGKJ1*01 (Fab, V domains shown)
VH: QVQLVQSGAEVKKPGASVKVSCKASGYTFTSYYMHWVRQAPGQGLEWMGIINPSGGSTSYAQKFQGRVTMTRDTSTSTVYMELSSLRSEDTAVYYCAREGYSSSWYDYFDYWGQGTLVTVSS
VL: not shown
notes: Germline Fab made in E. coli; VH was cloned into Plasmid A (CH1, His6 and Flag tags) and the kappa VL into Plasmid C (kappa CL)
ECL signal [1]: 1240
ECL signal [2]: 1560
ECL signal [3]: 993
ECL signal [4]: 8540

B2: Fab VH1-46_IGHD3-10*01_IGHJ4*01 & O1_IGKJ1*01 (Fab, V domains shown)
VH: QVQLVQSGAEVKKPGASVKVSCKASGYTFTSYYMHWVRQAPGQGLEWMGIINPSGGSTSYAQKFQGRVTMTRDTSTSTVYMELSSLRSEDTAVYYCAREYYYGSGSYYNDYFDYWGQGTLVTVSS
VL: DIVMTQTPLSLPVTPGEPASISCRSSQSLLDSDDGNTYLDWYLQKPGQSPQLLIYTLSYRASGVPDRFSGSGSGTDFTLKISRVEAEDVGVYYCMQRIEFPSWTFGQGTKVEIKR
notes: Germline library Fab expressed in E. coli; VH was cloned into Plasmid A (CH1 constant region, His6 and Flag tags); The kappa VL was cloned into Plasmid C (kappa CL)
ECL signal [5]: 1260
ECL signal [6]: 2700
ECL signal [7]: 6120
ECL signal [8]: 1790
ECL signal [9]: 1380
ECL signal [10]: 1640
ECL signal [11]: 1640
ECL signal [12]: 1430

Continued, values first:

ECL signal/noise ratio [13]: 3.2
ECL signal/noise ratio [14]: 3.7
ECL signal/noise ratio [15]: 1.9
ECL signal/noise ratio [16]: 3.5
B3: Fab VH5-51_IGHD5-18*01>3_IGHJ4*01 G100K/G104T & V3-4_IGLJ1*01 (Fab, V domains shown)
VH: EVQLVQSGAEVKKPGESLKISCKGSGYSFTSYWIGWVRQMPGKGLEWMGIIYPGDSDTRYSPSFQGQVTISADKSISTAYLQWSSLKASDTAMYYCARRKYSYTYDYFDYWGQGTLVTVSS
VL: QTVVTQEPSFSVSPGGTVTLTCGLSSGSVSTSYYPSWYQQTPGQAPRTLIYSTNTRSSGVPDRFSGSILGNKAALTITGAQADDESDYYCVLYMGSGISYVFGTGTKVTVL
notes: Tested as a Fab; The constant parts are the same as for the parent Fab (CH1 with His6/Flag tags, lambda CL); also called KT double mutant; H:KT

ECL signal [17]: 872
ECL signal [18]: 419
ECL signal [19]: 566
B4: Fab VH4-34_IGHD7-27*01_IGHJ4*01 & L5_IGKJ1*01 (Fab, V domains shown)
VH: QVQLQQWGAGLLKPSETLSLTCAVYGGSFSGYYWSWIRQPPGKGLEWIGEINHSGSTNYNPSLKSRVTISVDTSKNQFSLKLSSVTAADTAVYYCARANWGDYFDYWGQGTLVTVSS
VL: DIQMTQSPSSVSASVGDRVTITCRASQGISSWLAWYQQKPGKAPKLLIYAASSLQSGVPSRFSGSGSGTDFTLTISSLQPEDFATYYCQQANSFPPWTFGQGTKVEIKR
notes: Germline library Fab expressed in E. coli; VH was cloned into Plasmid A, which adds CH1 with His6 and Flag tags
